In general, pKd refers to the Kd on a negative log10 scale, so that one unit is a factor of ten.

The target in this experiment is recombinant human cardiotrophin-like cytokine factor 1 (CLCF1) (human) (UniProt Q9UBD9). The experiment in a line: yeast display binding.

pKd: −log10 of the molar value.

Chain of recombinant human cardiotrophin-like cytokine factor 1 (CLCF1) (human) (Q9UBD9 28-225): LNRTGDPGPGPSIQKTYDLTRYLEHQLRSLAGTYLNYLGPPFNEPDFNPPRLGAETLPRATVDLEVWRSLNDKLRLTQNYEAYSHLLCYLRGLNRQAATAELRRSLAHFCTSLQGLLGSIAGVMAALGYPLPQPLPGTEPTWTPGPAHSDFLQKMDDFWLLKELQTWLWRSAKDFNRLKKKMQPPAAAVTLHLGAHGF

On to “yeast-displayed eCNTFR (variant 4 with Y177H and K178N) (from UniProt P26992 20-342)”, for which the pKd is 10.85.

Source of the values: US20190359683A1.
